Experimental data taken from patent EP3727588B1 (UNIVERSITA' DEGLI STUDI DI MILANO, dated 2019).

Assays:
[1] = target: AP2 clathrin adaptor complex (in COS7 cells); test: cell-based or functional assay
[2] = target: T1, α-adaptin subunit of AP2 (rat) (rat, UniProt P58197); test: co-IP with anti-ADAM10; rat primary hippocampal neurons, 1 µM, 30 min; competitor ADAM10 (Fig. 1D)
T1 construct: Detected by Western blot as a read-out of the whole AP2 complex

[3] = target: T1, α-adaptin subunit of AP2 (rat); test: co-IP with anti-ADAM10, α-adaptin blot; rat acute hippocampal slices, 10 µM, 30 min; competitor ADAM10 (Fig. 1B)

T1 sequence (P58197 whole entry): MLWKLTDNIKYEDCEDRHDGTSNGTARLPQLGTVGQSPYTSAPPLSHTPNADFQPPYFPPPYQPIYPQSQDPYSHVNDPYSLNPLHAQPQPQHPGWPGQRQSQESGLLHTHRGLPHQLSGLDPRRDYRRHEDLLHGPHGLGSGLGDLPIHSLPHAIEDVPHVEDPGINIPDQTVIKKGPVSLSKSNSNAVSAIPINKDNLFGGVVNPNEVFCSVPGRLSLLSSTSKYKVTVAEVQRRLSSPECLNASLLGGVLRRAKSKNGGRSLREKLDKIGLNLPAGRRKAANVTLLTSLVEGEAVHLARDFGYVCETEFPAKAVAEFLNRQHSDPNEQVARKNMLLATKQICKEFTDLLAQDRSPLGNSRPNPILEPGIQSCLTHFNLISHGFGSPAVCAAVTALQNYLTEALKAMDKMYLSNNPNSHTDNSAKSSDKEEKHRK

Binder | internalization index of TacADAM10-RAR (fluorescence-based antibody uptake, COS7 cells, 1 µM, 30 min) [1] [%] | PEP/inPEP ratio of α-adaptin co-immunoprecipitated with ADAM10 (OD) [2] [%] | PEP/inPEP ratio of α-adaptin co-immunoprecipitated with ADAM10 (OD) [3] [%]
YGRKKRRQRRRGGSGLPPEQEPRL [inPEP2] | -1.84 | – | –
YGRKKRRQRRRGGSGQPPRQRPRG [PEP3] | -12.8 | 10.8 | 37.4
YGRKKRRQRRRGGSGQPPEQEPRG [inPEP3] | 1.3 | – | –
YGRKKRRQRRRGGSGLPPRQRPRL [PEP2] | -10.9 | 33.9 | 41.6
